Measured values as given in US20250084142A1 (INTARCIA THERAPEUTICS, published 2025).
Starred links: 1 amine or outer side, 2 acyl side, 3 side chain; linkers in the order of their positions; H or OH if unused. Positions of bridges follow the written chain, without caps; N, C: chain ends. Non-standard residues stand in square brackets, D forms with d. Groups on a side chain read outwards from the residue. No end group written: not given here. *: point of attachment. dpeg = —[CO(CH2)O(CH2)2O(CH2)NH]— spacer, O=C(COCCOCN[*:1])[*:2]; C20 diacid = O=C(O)CCCCCCCCCCCCCCCCCCC(=O)*; C19 diacid = O=C(O)CCCCCCCCCCCCCCCCCC(=O)*; γGlu = O=C(O)[C@H](CCC(=O)[*:2])N[*:1]

T1: NPY5R
T1 sequence (Q15761 1-445, species assumed, looked up): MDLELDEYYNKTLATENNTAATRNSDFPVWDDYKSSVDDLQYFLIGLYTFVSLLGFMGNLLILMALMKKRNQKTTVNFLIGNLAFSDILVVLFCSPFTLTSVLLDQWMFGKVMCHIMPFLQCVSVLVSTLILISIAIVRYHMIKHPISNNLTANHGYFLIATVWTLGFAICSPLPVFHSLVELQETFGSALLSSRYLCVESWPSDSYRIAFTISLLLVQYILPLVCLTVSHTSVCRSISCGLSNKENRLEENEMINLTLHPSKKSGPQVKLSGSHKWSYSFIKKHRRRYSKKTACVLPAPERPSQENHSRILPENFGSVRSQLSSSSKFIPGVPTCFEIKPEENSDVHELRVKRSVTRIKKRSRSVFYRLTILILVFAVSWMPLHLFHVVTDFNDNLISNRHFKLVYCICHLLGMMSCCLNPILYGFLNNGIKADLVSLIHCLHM

T2: NPY2R
T2 sequence (P49146 1-381, species assumed, looked up): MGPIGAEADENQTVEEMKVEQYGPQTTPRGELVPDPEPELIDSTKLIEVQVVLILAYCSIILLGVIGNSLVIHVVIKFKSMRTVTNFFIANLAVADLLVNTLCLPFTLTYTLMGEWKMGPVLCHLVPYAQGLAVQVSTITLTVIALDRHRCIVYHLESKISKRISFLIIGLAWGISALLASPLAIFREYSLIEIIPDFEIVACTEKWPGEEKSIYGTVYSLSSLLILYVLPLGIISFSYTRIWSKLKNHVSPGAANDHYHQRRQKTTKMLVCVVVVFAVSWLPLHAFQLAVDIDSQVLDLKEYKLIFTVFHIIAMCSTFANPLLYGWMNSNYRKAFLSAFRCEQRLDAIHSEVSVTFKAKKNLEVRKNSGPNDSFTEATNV


How the values were obtained:
Assay in all cases: cell-based or functional assay
NPY1R = biological target: NPY1R
NPY5R = biological target: T1, NPY5R
NPY2R = biological target: T2, NPY2R

Chain of NPY1R (P25929 whole entry): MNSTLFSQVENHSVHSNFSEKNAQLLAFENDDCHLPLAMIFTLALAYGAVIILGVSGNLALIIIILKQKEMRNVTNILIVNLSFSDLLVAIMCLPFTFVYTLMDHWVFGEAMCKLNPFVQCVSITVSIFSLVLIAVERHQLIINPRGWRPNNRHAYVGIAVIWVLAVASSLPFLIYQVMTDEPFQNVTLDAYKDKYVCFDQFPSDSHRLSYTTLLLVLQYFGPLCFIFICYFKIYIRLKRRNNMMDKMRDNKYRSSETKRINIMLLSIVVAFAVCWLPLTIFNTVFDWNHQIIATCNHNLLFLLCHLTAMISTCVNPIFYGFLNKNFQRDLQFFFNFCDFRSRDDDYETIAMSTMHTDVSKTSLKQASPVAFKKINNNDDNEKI

NPY1R pEC50 (NPY1R)	NPY5R pEC50 (NPY5R)	NPY2R pEC50 (NPY2R)	Binder
8.5 -Log(EC50, M)	8.3 -Log(EC50, M)	–	PKPEAPGKDASPEEWNRYY[dK]([γGlu-γGlu-C20 diacid])DLRHYLNWLTRQRF-NH2 (N-terminus assumed; SMILES CC(C)C[C@H](NC(=O)[C@H](Cc1ccc(O)cc1)NC(=O)[C@H](Cc1c[nH]cn1)NC(=O)[C@H](CCCNC(=N)N)NC(=O)[C@H](CC(C)C)NC(=O)[C@H](CC(=O)O)NC(=O)[C@@H](CCCCNC(=O)CC[C@H](NC(=O)CC[C@H](NC(=O)CCCCCCCCCCCCCCCCCCC(=O)O)C(=O)O)C(=O)O)NC(=O)[C@H](Cc1ccc(O)cc1)NC(=O)[C@H](Cc1ccc(O)cc1)NC(=O)[C@H](CCCNC(=N)N)NC(=O)[C@H](CC(N)=O)NC(=O)[C@H](Cc1c[nH]c2ccccc12)NC(=O)[C@H](CCC(=O)O)NC(=O)[C@H](CCC(=O)O)NC(=O)[C@@H]1CCCN1C(=O)[C@H](CO)NC(=O)[C@H](C)NC(=O)[C@H](CC(=O)O)NC(=O)[C@H](CCCCN)NC(=O)CNC(=O)[C@@H]1CCCN1C(=O)[C@H](C)NC(=O)[C@H](CCC(=O)O)NC(=O)[C@@H]1CCCN1C(=O)[C@H](CCCCN)NC(=O)[C@@H]1CCCN1)C(=O)N[C@@H](CC(N)=O)C(=O)N[C@@H](Cc1c[nH]c2ccccc12)C(=O)N[C@@H](CC(C)C)C(=O)N[C@H](C(=O)N[C@@H](CCCNC(=N)N)C(=O)N[C@@H](CCC(N)=O)C(=O)N[C@@H](CCCNC(=N)N)C(=O)N[C@@H](Cc1ccccc1)C(N)=O)[C@@H](C)O) [Compound A14]
–	8.7 -Log(EC50, M)	10.9 -Log(EC50, M)	PKPEK([γGlu-γGlu-C19 diacid])PGEDASPKEWNRYYKDLRHYLNWLTRQRF-NH2 (N-terminus assumed; SMILES CC(C)C[C@H](NC(=O)[C@H](CC(=O)O)NC(=O)[C@H](CCCCN)NC(=O)[C@H](Cc1ccc(O)cc1)NC(=O)[C@H](Cc1ccc(O)cc1)NC(=O)[C@H](CCCNC(=N)N)NC(=O)[C@H](CC(N)=O)NC(=O)[C@H](Cc1c[nH]c2ccccc12)NC(=O)[C@H](CCC(=O)O)NC(=O)[C@H](CCCCN)NC(=O)[C@@H]1CCCN1C(=O)[C@H](CO)NC(=O)[C@H](C)NC(=O)[C@H](CC(=O)O)NC(=O)[C@H](CCC(=O)O)NC(=O)CNC(=O)[C@@H]1CCCN1C(=O)[C@H](CCCCNC(=O)CC[C@H](NC(=O)CC[C@H](NC(=O)CCCCCCCCCCCCCCCCCC(=O)O)C(=O)O)C(=O)O)NC(=O)[C@H](CCC(=O)O)NC(=O)[C@@H]1CCCN1C(=O)[C@H](CCCCN)NC(=O)[C@@H]1CCCN1)C(=O)N[C@@H](CCCNC(=N)N)C(=O)N[C@@H](Cc1c[nH]cn1)C(=O)N[C@@H](Cc1ccc(O)cc1)C(=O)N[C@@H](CC(C)C)C(=O)N[C@@H](CC(N)=O)C(=O)N[C@@H](Cc1c[nH]c2ccccc12)C(=O)N[C@@H](CC(C)C)C(=O)N[C@H](C(=O)N[C@@H](CCCNC(=N)N)C(=O)N[C@@H](CCC(N)=O)C(=O)N[C@@H](CCCNC(=N)N)C(=O)N[C@@H](Cc1ccccc1)C(N)=O)[C@@H](C)O) [Compound A36]

More lines, now with the values behind:

Binder	NPY1R pEC50 (NPY1R)	NPY5R pEC50 (NPY5R)	NPY2R pEC50 (NPY2R)
PKPEK([γGlu-γGlu-C20 diacid])PGEDASPKEWNRYYKDLRHYLNWLTRQRF-NH2 (N-terminus assumed; SMILES CC(C)C[C@H](NC(=O)[C@H](CC(=O)O)NC(=O)[C@H](CCCCN)NC(=O)[C@H](Cc1ccc(O)cc1)NC(=O)[C@H](Cc1ccc(O)cc1)NC(=O)[C@H](CCCNC(=N)N)NC(=O)[C@H](CC(N)=O)NC(=O)[C@H](Cc1c[nH]c2ccccc12)NC(=O)[C@H](CCC(=O)O)NC(=O)[C@H](CCCCN)NC(=O)[C@@H]1CCCN1C(=O)[C@H](CO)NC(=O)[C@H](C)NC(=O)[C@H](CC(=O)O)NC(=O)[C@H](CCC(=O)O)NC(=O)CNC(=O)[C@@H]1CCCN1C(=O)[C@H](CCCCNC(=O)CC[C@H](NC(=O)CC[C@H](NC(=O)CCCCCCCCCCCCCCCCCCC(=O)O)C(=O)O)C(=O)O)NC(=O)[C@H](CCC(=O)O)NC(=O)[C@@H]1CCCN1C(=O)[C@H](CCCCN)NC(=O)[C@@H]1CCCN1)C(=O)N[C@@H](CCCNC(=N)N)C(=O)N[C@@H](Cc1c[nH]cn1)C(=O)N[C@@H](Cc1ccc(O)cc1)C(=O)N[C@@H](CC(C)C)C(=O)N[C@@H](CC(N)=O)C(=O)N[C@@H](Cc1c[nH]c2ccccc12)C(=O)N[C@@H](CC(C)C)C(=O)N[C@H](C(=O)N[C@@H](CCCNC(=N)N)C(=O)N[C@@H](CCC(N)=O)C(=O)N[C@@H](CCCNC(=N)N)C(=O)N[C@@H](Cc1ccccc1)C(N)=O)[C@@H](C)O) [Compound A72]	9 -Log(EC50, M)	8.8 -Log(EC50, M)	10.8 -Log(EC50, M)
PKPEKPGK([γGlu-γGlu-C19 diacid])DASPKEWERYYKDLRHYLNWLTRQRF-NH2 (lactam 16-20; N-terminus assumed; SMILES CC(C)C[C@H](NC(=O)[C@H](CC(=O)O)NC(=O)[C@@H]1CCCCNC(=O)CC[C@H](NC(=O)[C@H](Cc2c[nH]c3ccccc23)NC(=O)[C@H](CCC(=O)O)NC(=O)[C@H](CCCCN)NC(=O)[C@@H]2CCCN2C(=O)[C@H](CO)NC(=O)[C@H](C)NC(=O)[C@H](CC(=O)O)NC(=O)[C@H](CCCCNC(=O)CC[C@H](NC(=O)CC[C@H](NC(=O)CCCCCCCCCCCCCCCCCC(=O)O)C(=O)O)C(=O)O)NC(=O)CNC(=O)[C@@H]2CCCN2C(=O)[C@H](CCCCN)NC(=O)[C@H](CCC(=O)O)NC(=O)[C@@H]2CCCN2C(=O)[C@H](CCCCN)NC(=O)[C@@H]2CCCN2)C(=O)N[C@@H](CCCNC(=N)N)C(=O)N[C@@H](Cc2ccc(O)cc2)C(=O)N[C@@H](Cc2ccc(O)cc2)C(=O)N1)C(=O)N[C@@H](CCCNC(=N)N)C(=O)N[C@@H](Cc1c[nH]cn1)C(=O)N[C@@H](Cc1ccc(O)cc1)C(=O)N[C@@H](CC(C)C)C(=O)N[C@@H](CC(N)=O)C(=O)N[C@@H](Cc1c[nH]c2ccccc12)C(=O)N[C@@H](CC(C)C)C(=O)N[C@H](C(=O)N[C@@H](CCCNC(=N)N)C(=O)N[C@@H](CCC(N)=O)C(=O)N[C@@H](CCCNC(=N)N)C(=O)N[C@@H](Cc1ccccc1)C(N)=O)[C@@H](C)O) [Compound A39]	9.1 -Log(EC50, M)	8.9 -Log(EC50, M)	10.4 -Log(EC50, M)
PKPEAPGKDASPEEWNRYY[dK]([γGlu-dpeg-dpeg-γGlu-C20 diacid])DLRHYLNWLTRQRF-NH2 [Compound A65]	8 -Log(EC50, M)	8.6 -Log(EC50, M)	10.2 -Log(EC50, M)
